Test results from the DeepSol protein solubility set.

Assay: soluble on expression in E. coli; label from the status in PepcDB or PDB records

Row | Sequence | soluble on expression in E. coli
1 | MGFMIEHWDFSTPMATQETTTAEHIQPNHWYHCERLHPDIRSWLEDNHVPRATVDHLLADESRPSFHPLDDDNFMLILRGINMNENASPEDMLSIRILYFQGALISTRKIPSRAIMEIRQALAEHKGPKSLASLLNQIIEGLNGKIDLYLDTIEETLNEFDVNDESTYNHIAAQKALISIKRFIRPQQYAIRDLIESESELVTSRPHQYRFAHNNITRINETIEFYLGEVALFQDEIKHNRDEKTNKNSYLFTLVATIFLPTSFLTGLL | not soluble
2 | MKHLLLASLLGSAMAMSSLVMAADTDLKTLEAAAKAEGAVNSLGMPDDWANWGGIWKDLETKYGLKHMDTDMSSAQEIAKFDAEKDNASGDIGDVGAAFGPIAVAKGVTQPYKPTTWEQIPDWAKDKDGHWALAYTGTIAFIVNKNLLHGSEIPKSWADLKTGKYKVSIGDVSTAAQATNGVLAAAIAMKGDESNIEPGLALFTDLAKQKRLSLANPTIQTIEKGEIEVGVVWDFNGLNYKAKMAKPDDYVVLIPSDGSVVSGYTTIINKYAKHPNAAKLAREYTFSDAGQINLAKGNARPIRVEHIKLPDDVKAQLLPHEQYLNAKPIKDADAWEKTSKALPQKWNEQVIIEMN | not soluble
3 | MISAKEQAKKGQIIYRYILLKIQSFKWPAGTRIFSERQLEIRFASSRSLIRTILNTLLGKDLIRHTKGNAGYFVAKNAGFSFFHKTQDNKLPKWAKLSTLMKNHLREVDRDVFSSIDSGVDFGNFKGLEAKLFDENKKNFLNLSFFGKDDVLQIFSEQNLQEQFFKDFAYNGIVVERKSSLICVDDETKNLLIYDLFYDDNNKFIVAMRSEYLNPRIKIINA | soluble
4 | MSLKHMLIAGGGIGGLSAAISLRKAGFSVTLCEAASENRKTGAGILQPQNALAVLKELGVFEDCCKHGFQTEWFKTFDEQGNLLFQVSESFLDDSLPGRNNILRKTLNDILMKHAEAVGVDIKWGKKVVAYEETAESVTALCEDGEKMQADILAGFDGIHSVVRDKMLQKETEKEHLGMGAWRFYIELPDYTFEDATFMYRSGDTQIGVVPLAQHAGYVFVLQPCTSDYWDEEDTRFDRVKEILSGFRGLDFVTKHMSKQHPVIFNKLEQVAVQEPWHKGRVIIGGDAAHAGAPTLAQGAAMAIEDAIVLAEELQNHADHETALQAYYKRRAPRALKVQNLSSEIVRRRLKGEPGAEELIGECYAVLREGYEGGSHHHHHH | soluble
5 | MAFIGRDDDLKQLQECFTERRAQLVFVYGRRRVGKTETLIQLAKDKETLFFAAQNATKDEQLASFSRLMFEAGAPGKDYLSQYPSWERALTELTRLPEPSDGGRRLVIFDEFPYLVKSDPSLPSVLQNLWDHTLRHANLMIVICGSAMSFIEKELLGEKSPLYGRATGILKMLPMPYWDAAQFFPNYSGEDKALAYAILGGIPRYLEEFDPDETIDANVKRHILRRIAPLYSEVEFLLHEELRETAKYNSVIRAIALGATSLNEIATHTMMANATVSSYLANLMELGIVEREFPVTAKPKERAKGSRGLYQLSDNFFRFWYSFVFPYRSELERGDVEGVYERHIKPVLHDFAGKPFEGLCREWMWRESAAGRLPFRARAVGRWWDRQDEIDVMAVDNASDAAIVGECKFRNAPVDRSVLNLLRDRAARTGIGQRTYLLFSLGGFDQSLVDDAAASQSDVQLVGIDELFHELEHHHHHH | not soluble
6 | GDSSSSGNSFVGLRVVAKWSSNGYFYSGKITRDVGAGKYKLLFDDGYECDVLGKDILLCDPIPLDTEVTALSEDEYFSAGVVKGHRKESGELYYSIEKEGQRKWYKRMAVILSLEQGNRLREQYGLGPYEAVTPLTKAADISLDNLVEGKRKRRSN | soluble
7 | MGSDKIHHHHHHMRTVLYDEHAKLNAKFTEFNGWDMPLYYRSIIEEHMAVRKHVGIFDVSHMGDVTVSGKDASAFLDHMFPTKVSNLKNGECVYTAFLNDSGLMIDDTIVYRMGEDSYFFVPNAGTTEKIYRWVSDHSAGYSVKIENVSNRISSIALQGPESEEVLNELGFSYPGYFKFQYVSGKYMNAITGKDQIIISGTGYTGEKGVEFIIPNEHAVELWKKLLEAINKRNGLPAGLGARDTLRMEKGMLLSGHDFNEDRDPYEASVSFIVNNDEDFVGKKNLEIRRRSDHEIFRGFVLSDGIPRNGNPIKAGGKRVGTVTSGTISPVLNKGIALGYIDKAYSKENTEVMIEIRSVDHKAVVTKPRIVK | not soluble
8 | MAHHHHHHMTAHVDRCVFFSKMGACRHGDQCTKLHYRPDTSPTVLFPLMYPNPHAIEHIKDREWNFELDKKYLKKHFEHFYKEVWRTFMEFGRIAELRVVSNLGDHLLGNVYIRFEDPQVATRIVKELRGKKLNDIIVLPELSPVTNFAEACCKEDLENRCQRGEQCNYLHIMKVSRRLLEKLEKEQSKYWKKKERRHEHSSSDRKRSRSRSPADTRW | soluble
9 | MSLSTDTAPAQTMHAGRLIARRLKASGIDTVFTLSGGHLFSIYDGCREEGIRLIDTRHEQTAAFAAEGWSKVTRVPGVAALTAGPGITNGMSAMAAAQQNQSPLVVLGGRAPALRWGMGSLQEIDHVPFVAPVARFAATAQSAENAGLLVDQALQAAVSAPSGVAFVDFPMDHAFSMSSDNGRPGALTELPAGPTPAGDALDRAAGLLSTAQRPVIMAGTNVWWGHAEAALLRLVEERHIPVLMNGMARGVVPADHRLAFSRARSKALGEADVALIVGVPMDFRLGFGGVFGSTTQLIVADRVEPAREHPRPVAAGLYGDLTATLSALAGSGGTDHQGWIEELATAETMARDLEKAELVDDRIPLHPMRVYAELAALLERDALVVIDAGDFGSYAGRMIDSYLPGCWLDSGPFGCLGSGPGYALAAKLARPQRQVVLLQGDGAFGFSGMEWDTLVRHNVAVVSVIGNNGIWGLEKHPMEALYGYSVVAELRPGTRYDEVVRALGGHGELVSVPAELRPALERAFASGLPAVVNVLTDPSVAYPRRSNEGHHHHHH | not soluble
10 | MKAVIAKNEEQLKDAFYVREEVFVKEQNVPAEEEIDELENESEHIVVYDGEKPVGAGRWRMKDGYGKLERICVLKSHRSAGVGGIIMKALEKAAADGGASGFILNAQTQAVPFYKKHGYRVLSEKEFLDAGIPHLQMMKD | soluble
11 | MSLGINRIDHAAVQVGDLGKALAWYEDVLGLTVLSRDDTTVHLACRGEAADITLVKGRQSLENFAFGVDDQEDLDRVESILKQEGVASERLNGDSRPGEGATLKFHLPSGHELRLCTGGAERRAGISDFDARGSHVPCDMDHINLLGAVDPSVMRDFLMMIGFKSSLNISVGGQLAGVWLRGSAYDHDIAYMRAVRPGDRLHHVAFAVEDGNHYFRLSDRLMDTGHRWEFGPGRHNGGLGKSTGFGTNNYAYAFDPFGNRNEFSSGMEQFSDDTPPLDCHIAPEQLTEVMNGWGYEMAETFMTVGSEGHHHHHH | not soluble
12 | MGSDKIHHHHHHMSQNASNDHMALSEDYVRNFFTYADPDNEAMLQLYRIGVFRTAKALSAGWIMPDEDARTARNLEYLRDNFEPGDVSVGELVSSETQLASFPDIYFRIRKVLDSPNSSADDISREISNDLGLTAKLLKLVNSPFYGLAHTVEDVSHAIAIVGVEEVSTLALGISAINVFKDIPQELIDMKAFWKHSVSCGVFAKLIASRIEGMKADKFFTAGLLHDVGRLIIFKKMPYASVQLLLYARENQLPVVESEEDHLGFDHTQVAKQLLTEWKFPASMVDCLAFHHAPSQAQDQLAASILQLADNMANAMEISSGGMYLLPGMEEGAWERIPLQGDDLVEIVGLFDSHIEELFKAIL | not soluble
13 | VIGDMNPDFLGSVSTGLTWKNLSFRMALDMRFGGKVAVYGNRYGTAYGWTESSLKFRDEAHGGMTWTSQYLNADGSQSGSYGVTYHDGMIPQGIFASGTQVTGIDGKTHDVSGMSYQQAYENGILEPMHAASYYNYANQWSTGVTNDGWIHDLKYIALREITVGYTFPSNIAGKIGAKRLGVSFSARNLGYLYNSLPNDVNPEGVRGNLSGEFRIRSFDPYTANYTMTINVGF | not soluble
14 | MGSDKIHHHHHHSDDKDSYPVPSDIENLKATPAPGQITLSWTNPADENLYYVQIEYTIGATGKSYRKQVSQYANELVIDNLLQKYGEINFTVQAFNRGNTAGTIHQITAQAEKASPTFGTPVKIDLDYKKIWTNAPFPTRPIKDLVDGNIATFFHSWWSSLVEMPHYLVVDLGEEVSAIKFRSTNTNRANDSSWKTINLYTSDSYNPAEWFDGVEKIDGNTVDISQAGTHKETTLTGLPDGVSEVYNSEVIPLSKPSRYLWFEVTETTKGTPYFALGELEIYQCSMVVLE | not soluble
15 | GPLGSVGSWECPVCCVSNKAEDSRCVSCTSEKPGLVSASSSNSVPVSLPSGGCLGLDKFKKPEGSWDCEVCLVQNKADSTKCIACESAKPGT | soluble
